B1: CPEB3 Ribozyme (parent)
chain: UAACAGGGGGCCACAGCAGAAGCGUUCACGUCGCAGCCCCUGUCAGAUUCUGGUGAAUCUGCGAAUUCUGCUGUAUAUCUC

Variants of B1 are the subject of the data set. Nature of the data set: self-cleavage, relative activity (ratio to wild type); higher = more cleavage; in vitro, sequencing. The method in brief: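 Relative activity was defined as the cleaved/total read fraction for a variant divided by the same fraction for the unmutated ribozyme. CPEB3 self-cleaving ribozyme libraries were made by rounds of error-prone PCR, barcoded, and transcribed in vitro with T7 RNA polymerase for 5 hours at 37°C, and cleavage ran through transcription plus a 15 min DNase I step before EDTA. Illumina sequencing of template-switched reverse transcripts gave the reads, and DNA sequencing mapped the barcodes. Averages come from three batches, using variants with at least 5 reads.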
In the case of G8A U31A, the self-cleavage turned out to be 0.18. To G8A U31C belongs 0.24; to G8A U31G, 0.41; to G8U U69C, 0.09.

On to G8U U69A, for which the self-cleavage was determined as 0.12. To G9A U80A belongs 0.21; to G9A U80C, 0.23. To G8C U25C belongs 0.15; to G9A A77G, 0.3. As to G9A A77C, the self-cleavage is 0.17. In the case of G9A A77U it was 0.23; in that of G8U G55U, 0.2; in that of G9A C38A, 0.25.

As for G9A G55C, the self-cleavage is 0.24. To G9C A64U belongs 0.23. In the case of G9C A64G it was 0.08; in that of G8U C29U, 0.25; in that of G9A U78C, 0.25. To G9A U78A belongs 0.44. Turning to G8C A28G, the self-cleavage was found to be 0.22. To G9A G16A belongs 0.17; to G9A A47U, 0.06. In the case of G9A A47G it was 0.37. For the variant G9C A18U, the self-cleavage came to 0.08. In the case of G9C A18G it was 0.16; in that of G8U U72A, 0.07; in that of G8U U72C, 0.15.

As for G9C G30C, the self-cleavage came to 0.06. In the case of G9C G30A it was 0.1; in that of G9C G30U, 0.22.

On to G8U U60A, for which the self-cleavage was 0.07. In the case of G8U U60C it was 0.17; in that of G8U U60G, 0.06; in that of G8A U78A, 0.37. In the case of G8A U78C it was 0.35. To G9A G61A belongs 0.06; to G8A G22A, 0.27. As for G8A U58C, the self-cleavage amounted to 0.2. To G8U G73C belongs 0.5; to G9A U58G, 0.08. To G9A U58A belongs 0.07.

Consider G9A U58C, for which the self-cleavage was 0.25. As for G8U U25C, the self-cleavage worked out at 0.12. To G8C A57G belongs 0.52; to G8U C40U, 0.11. In the case of G8A G33U it was 0.07; in that of G8C A65G, 0.38; in that of G8U U51A, 0.08. In the case of G8U U51C, the self-cleavage came out at 0.08. In the case of G9C U74C it was 0.26; in that of G8C C38U, 0.07. To G8U G52U belongs 0.21; to G8U G52A, 0.21. Turning to G8U U26C, the self-cleavage amounted to 0.14. In the case of G8U U26A, the self-cleavage worked out at 0.07. In the case of G9A U41C it was 0.43.

G9A U41A: the self-cleavage stood at 0.19. In the case of G9A U41G it was 0.26; in that of G9A A57G, 0.22.

On to G9A A57U, for which the self-cleavage came out at 0.15. In the case of G9A U26G it was 0.07; in that of G9A U26A, 0.29. In the case of G9A U26C it was 0.21; in that of G8A U43A, 0.27.

In the case of G8A U43C, the self-cleavage turned out to be 0.14. To G9C belongs 0.24. In the case of G9A it was 0.29.

Turning to G9A A13G, the self-cleavage came out at 0.3. To G9A A13U belongs 0.28; to G9A U31A, 0.16. In the case of G9A U31C it was 0.29; in that of G8U G53U, 0.12; in that of G8U G53A, 0.2. To G8C U76C belongs 0.4.

As for G8A U66C, the self-cleavage came to 0.12. To G8U U31C belongs 0.11. Turning to G8U U31A, the self-cleavage came out at 0.18. On to G9A U74C, for which the self-cleavage worked out at 0.6. With G8A C79A, the self-cleavage was determined as 0.18.

Consider G9A G24C, for which the self-cleavage is 0.2. In the case of G9A G24A it was 0.22. In the case of G9A U25C it was 0.21; in that of G9A U25A, 0.2; in that of G8C U58C, 0.21. To G9C A77C belongs 0.18; to G9C A65G, 0.32. For G9A C79U, the self-cleavage is 0.16. Consider G9C U72C, for which the self-cleavage was determined as 0.37. Regarding G9C U72G, the self-cleavage worked out at 0.09. As for G9A A18U, the self-cleavage was 0.14.

On to G9A A18G, for which the self-cleavage is 0.21. Turning to G9A A64U, the self-cleavage is 0.39. In the case of G9A A64C it was 0.06; in that of G9A A64G, 0.3. To G9A C32U belongs 0.2. In the case of G8C G73U it was 0.25; in that of G8U A21U, 0.17. Take G9A G42A: the self-cleavage is 0.3. To G8C A56G belongs 0.17; to G8U U78A, 0.21; to G8U U78C, 0.17. In the case of G9A A75G it was 0.31; in that of G9A C37U, 0.15.

For the variant G8A G24A, the self-cleavage was determined as 0.08. To G8U U58A belongs 0.32; to G8U U58C, 0.1. In the case of G9A U49A it was 0.19; in that of G9A U49C, 0.23.

With G8A U49C, the self-cleavage was 0.2. In the case of G8A U49A it was 0.25. To G8C U51A belongs 0.12; to G9A C34A, 0.2; to G8A G19A, 0.06. In the case of G8C A21G it was 0.06. Turning to G8U A20G, the self-cleavage is 0.17. In the case of G8U G22A it was 0.12; in that of G8C A18G, 0.27.

On to G8C A18U, for which the self-cleavage came out at 0.23. To G8U G19C belongs 0.23. In the case of G9C A20G it was 0.06; in that of G9C A56G, 0.24.

In the case of G9C U31A, the self-cleavage came to 0.19. In the case of G9C U31C it was 0.22; in that of G8U U67C, 0.23; in that of G8U U67A, 0.19. To G9A U72A belongs 0.23. In the case of G9A U72C it was 0.39. In the case of G8A U67G, the self-cleavage was 0.48.

For G8A U67A, the self-cleavage came to 0.26. In the case of G8A U67C it was 0.22. Regarding G8U A75G, the self-cleavage turned out to be 0.12. To G8U A75U belongs 0.35; to G9A G22C, 0.32. To G8A U60C belongs 0.23; to G8A U60A, 0.18. In the case of G9A A56G it was 0.18; in that of G9A A56U, 0.23. Take G9A A56C: the self-cleavage was determined as 0.24. In the case of G9C G55A it was 0.41; in that of G8U C39U, 0.08; in that of G8A G63C, 0.19. G9C U76C: the self-cleavage amounted to 0.3. In the case of G8C G33A it was 0.06; in that of G9A U48C, 0.36. To G9A U76C belongs 0.34; to G9A U76A, 0.45; to G9A C81U, 0.35. For the variant G9A A21C, the self-cleavage is 0.06. To G9A A21G belongs 0.19; to G8U G63A, 0.07. In the case of G9A C23U it was 0.07; in that of G9C C71G, 0.05; in that of G9C U54C, 0.41. To G9C A75G belongs 0.17; to G9A G63A, 0.12. Consider G8C U67G, for which the self-cleavage turned out to be 0.15. To G8C U67C belongs 0.15; to G8C C32U, 0.2. In the case of G8U C37U it was 0.17; in that of G8U C11U, 0.1; in that of G8A U74C, 0.35. To G8A U74A belongs 0.25. For the variant G8A U76A, the self-cleavage came to 0.49.

G8C G36C: the self-cleavage turned out to be 0.15. To G8C C27A belongs 0.19. To G9C C44U belongs 0.18.

For G8C U78C, the self-cleavage turned out to be 0.07.

The values above are taken from the RNAGym collection of RNA variant scans (doi:10.1093/nar/gkz1192).
